Article PMC3514331, “Structure-function analysis of Methanobacterium thermoautotrophicum RNA ligase – engineering a thermostable ATP independent enzyme” (BMC Molecular Biology, 2012)
Substitutions are numbered along the chain they refer to. Names and notes keep the numbering of the source.

B1: MthRnl (Methanobacterium thermoautotrophicum RNA ligase) (Methanothermobacter thermautotrophicus str. Delta H) (protein)
chain: MNSMNSDIPFDLIQERTGVPSSRLKVAFARGSLRLLESAGMQALLFKKPLGDLEAGTVIYLGDETEVIRGFPKIRRTLLLSPTIQEHFRDRVAVEEKMNGYNVRIACLSSGETVALTRGGHVCPFTTRKAQELLDLSEFFREHPDLVICGEMIGRDNPYVSQDYPEVGPLGFRVFDLREKNTNRPLPVEERRALLDSYGLPNVRLFGVYPIEEAASEVADIIRALGMAGREGVVMKDPSMEVPPLKYTSSQAHARELAYAFSYPFDFGRPFFFSRVIREGFQAYELDESDDETRERARRLGEAIIYPMLERIKSISAGEAAYEDTVIDVEDREAAEEFIRHLVRLGVSATLADYRDGRATIRRFYQSTTDRINNYLKGGLY
notes: full-length codon-optimized ORF, N-terminal His10 tag (pET16b), expressed in E. coli, tag cleavage not mentioned; homodimer, about 46 kDa per monomer (10 pmol = 460 ng)
B2: MthRnl (Methanobacterium thermoautotrophicum RNA ligase) (Methanothermobacter thermautotrophicus str. Delta H; K246A) (protein)
chain: B1 chain with K246A
notes: as for B1

Substrate: Nc1ncnc2c1ncn2[C@@H]1O[C@H](COP(=O)(O)OP(=O)(O)OP(=O)(O)O)[C@@H](O)[C@H]1O
Assay: purified protein
Format: biochemical, Methanothermobacter thermautotrophicus
Details: 10 mM Mg2+, 30 min, covalent enzyme-AMP formation, labelled compound

| Protein | Km (10 mM bis-Tris propane pH 7.0, 65°C) [µM] | Km (10 mM bis-Tris propane pH 8.5, 65°C) [µM] |
| --- | --- | --- |
| B1 | 0.9 |  |
| B2 |  | 60 |
